Measured values: patent US20240343803A1 (SHANDONG SIMCERE BIOPHARMACEUTICAL, published 2024)

T1: cynomolgus monkey PVRIG on FlpinCHO-cyno PVRIG cells (cynomolgus monkey, UniProt A0A2K5WVV8 41-322)
T1 construct: whole, on cells
T1 sequence: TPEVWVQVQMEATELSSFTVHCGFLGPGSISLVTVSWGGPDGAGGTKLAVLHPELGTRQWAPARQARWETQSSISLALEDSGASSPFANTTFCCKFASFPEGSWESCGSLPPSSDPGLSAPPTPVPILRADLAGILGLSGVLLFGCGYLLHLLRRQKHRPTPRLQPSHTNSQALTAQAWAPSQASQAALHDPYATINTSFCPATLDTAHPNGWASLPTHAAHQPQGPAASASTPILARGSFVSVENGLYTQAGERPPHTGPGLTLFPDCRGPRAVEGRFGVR

T2: human PVRIG on FlpinCHO-PVRIG cells (human, UniProt Q6DKI7 41-326)
T2 construct: whole, on cells
T2 sequence (looked up): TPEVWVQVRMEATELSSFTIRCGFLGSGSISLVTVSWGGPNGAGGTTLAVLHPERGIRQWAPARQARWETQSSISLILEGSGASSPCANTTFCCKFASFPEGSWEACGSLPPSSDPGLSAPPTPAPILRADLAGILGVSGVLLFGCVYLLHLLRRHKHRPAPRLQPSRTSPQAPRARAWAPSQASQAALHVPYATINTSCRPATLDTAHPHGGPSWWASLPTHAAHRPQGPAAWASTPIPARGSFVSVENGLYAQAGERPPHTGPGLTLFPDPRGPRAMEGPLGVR

T3: human PVRIG-his (AcroBiosystems, Cat NO. PVG-H52H4) (human, UniProt Q6DKI7 41-171, limits assumed)
T3 construct: also called human PVRIG protein
T3 sequence (looked up): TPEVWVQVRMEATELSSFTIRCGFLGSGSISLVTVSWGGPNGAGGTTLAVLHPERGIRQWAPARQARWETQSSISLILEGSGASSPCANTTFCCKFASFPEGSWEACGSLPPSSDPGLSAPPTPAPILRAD

T4: human PVRIG-mFc protein (Acro, PVG-H5253) (human, UniProt Q6DKI7 41-171, limits assumed)
T4 construct: bought protein
T4 sequence (looked up): T3 sequence (looked up)

T5: human PVRIG-his (AcroBiosystems, Cat NO. PVG-H52H4) (human, UniProt Q6DKI7 41-171, limits assumed)
T5 construct: Bought reagent; also called human PVRIG protein
T5 sequence (looked up): T3 sequence (looked up)

T6: cynomolgus monkey PVRIG (Novoprotein, Cat NO. C09B) (cynomolgus monkey, UniProt A0A2K5WVV8 41-171)
T6 construct: Bought reagent; also called cynomolgus monkey PVRIG protein
T6 sequence: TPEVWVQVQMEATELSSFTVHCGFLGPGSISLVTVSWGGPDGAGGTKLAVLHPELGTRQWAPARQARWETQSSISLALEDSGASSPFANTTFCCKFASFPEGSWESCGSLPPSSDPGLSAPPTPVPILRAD

B1: PVRIG-A105 (Fc fusion)
chain: EVQLVESGGGLVQAGGSLRLSCAASGRTFDRHTMTWFRQAPGKEREFVATASRIPGDTYYSHSVKGRFTISRDNAKNTVYLQLNNLKPEDTAVYYCAATSAYCSEVDCYEKGSWYDNWGQGIQVTVSS
notes: Alpaca VHH joined to human IgG1 Fc (VHH-hinge-CH2-CH3); not shown: human IgG1 hinge-CH2-CH3
B2: PVRIG-A113 (Fc fusion)
chain: QLQLVESGGGLVQSGGSLRLSCAASGRTRSMYVMGWFRQAPGKEREFVGRIKWSGDTTYTSYADFVKGRFTLYGNQARNTVYLQMNSLKPEDTAVYYCAALPSDYDYRAASYGVDYWGKGTLVTVSS
notes: as for B1
B3: PVRIG-A113 (Fc fusion)
chain: B2 chain
notes: heavy chain antibody VHH-hinge-CH2-CH3, human IgG1 constant part; not shown: human IgG1 hinge-CH2-CH3
B4: PVRIG-A117 (Fc fusion)
chain: EVQVVESGGGLVQAGGSLRLSCTASEHIYDLYIMGWYRQAPGKDRELVATITYTGSIYIADSVKDRFTISRGNAKNTVSLQMSGLKPEDTAVYYCNADPSGLGRKLYWGQGTQVTVSS
notes: as for B3
B5: PVRIG-A43 (Fc fusion)
chain: QVQLVESGGGLVQSGGSLRLSCAASGRTRSMYVMGWFRQAPGKEREFVGRIKWSGDTTYTSYADFVKGRFTLYGNQARNTVYLQMNSLKVEDTAVYYCAGRVVPLPSRQRDRYDYWGQGTQVTVSS
notes: as for B3
B6: PVRIG-A104 (Fc fusion)
chain: EVQVVESGGGLVQAGGSLRLSCAASGRTRSMYVMGWFRQAPGKEREFVGRIKWSGDTTYTSYADFVKGRFTLYGNQARNTVYLQMNSLKPEDTAVYYCYRRSWTNTKLYWGKGIQVTVSS
notes: as for B3

What follows are binders tested against T1, cynomolgus monkey PVRIG on … (assay: FACS, FlpinCHO-cyno PVRIG cells; AUC of MFI curve relative to SRF813-hIgG1).
Protocol: (§1) The Ham's F12 (Gibico, 21127-022) complete medium containing 10% FBS was then added to terminate the digestion and acquire cell suspension. After counting with a cell counter (Beckman Coulter, Vi-CELL), an appropriate amount of cell suspension was centrifuged at 350×g to remove the supernatant, washed twice with PBS, stained with Zombie violet (Biolegend, 423114) and incubated at room temperature for 20 minutes. After incubation, the cells were added with staining buffer (2% FBS+PBS) to stop staining, centrifuged at 350×g to remove the supernatant, washed twice and resuspended with staining buffer to a density of 2×10⁶ cells/mL. The cells were plated into a 96-well plate (50 μL of cell suspension per well) for further use. The antibodies were diluted from the highest concentration of 46 nM (two-fold concentration) with staining buffer by 3.3-fold serial dilution. The diluted antibodies were added to the well containing 50 μL of cell suspension. The plate was placed on a microplate shaker at 400 rpm for 1 minute to fully mix the antibodies and cells, and then incubated at 4° C. for 30 minutes. After the incubation, the cells were washed twice with staining buffer (200 μL per well) and centrifuged at 350×g for 5 minutes to discard the supernatant. The PE goat anti-human IgG Fc antibody (ebioscience, 12-4998-82) was diluted 250 times with staining buffer, added into the washed wells (100 μL per well), mixed well, and stained at 4° C. for 30 minutes. After staining, the cells were washed twice with staining buffer, finally resuspended with 200 μL staining buffer and analyzed by flow cytometry (BD, Canto II). The stronger the signal, the stronger the ability of the antibodies binds to PVRIG. An antibody binding curve was drawn with concentration of antibodies as the abscissa and the corresponding Mean Fluorescence Intensity (MFI) as the ordinate. The AUC value of the curve was calculated by using a Four Parameter Logistic Fit (GraphPadPrism9). The stronger the AUC value, the stronger the ability of the antibodies binds to FlpinCHO-PVRIG and FlpinCHO-cyno PVRIG. […] The binding activity of the antibodies was normalized to the positive control COM701-hIgG1 and SRF813-hIgG1.

Row | % AUC to SRF813-hIgG1 [%] | Binder
1 | 157 | B1
2 | 52.7 | B2

The binders below were run against T2, human PVRIG on FlpinCHO-PVRIG cells (assay: FACS, FlpinCHO-PVRIG cells; AUC of MFI curve relative to COM701-hIgG1).
Protocol: as §1

Row | % AUC to COM701-hIgG1 [%] | Binder
3 | 123 | B1
4 | 42.4 | B2

What follows are binders tested against T3, human PVRIG-his (AcroBiosystems, Cat …) (assay: SPR (BIAcore), antibody captured on Protein A chip, human PVRIG-His analyte).
Outline: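 Anti-PVRIG antibody captured on a Protein A chip to about 50 RU Rmax, then human PVRIG-His injected at graded concentrations in multi-cycle kinetics (association and dissociation). Chip regenerated with glycine pH 1.5 between cycles; affinity derived from the fitted kinetics.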

Row | Kd [nM] | koff [s⁻¹] | kon [M⁻¹ s⁻¹] | Binder
5 | 0.203 | 8.96e-05 | 442000 | B3
6 | 0.367 | 0.00137 | 3.74e+06 | B4
7 | 0.366 | 8.58e-06 | 23400 | B5
8 | 0.0276 | 4.24e-06 | 154000 | B6

What follows are binders tested against T4, human PVRIG-mFc protein (Acro, …) (assay: FACS competition, PVRIG-mFc binding to CHO-K1-CD112 cells, competitor CD112 on cells).
Protocol: A working solution of human PVRIG-mFc protein (Acro, PVG-H5253) prepared with staining buffer, 1 μg/mL (four-fold concentration), was added into a 96-well plate (50 μL PVRIG-mFc working solution per well). […] The diluted antibodies were added to the well containing 50 μL of PVRIG-mFc. The plate was placed on a microplate shaker at 400 rpm for 1 minute to fully mix the antibodies and PVRIG-mFc proteins, and then incubated at 4° C. for 30 minutes. After the incubation, the cell suspension prepared above (100 μL) was added into the wells, gently mixed with the pipette tip and incubated at 4° C. for 30 minutes. After the incubation, the cells were washed twice with staining buffer (200 μL per well) and centrifuged at 350×g for 5 minutes to discard the supernatant. The PE goat anti-mouse IgG Fc antibody (Biolegend, 405337) was diluted 250 times with staining buffer, added into the washed wells (100 μL per well), mixed well, and stained at 4° C. for 30 minutes. After staining, the cells were washed twice with staining buffer, finally resuspended with 200 μL staining buffer and analyzed by flow cytometry (BD, Canto II). The weaker the fluorescence signal, the stronger the ability of the antibodies blocks the binding of CHO-K1 human CD112 cells to the PVRIG-mFc protein. An antibody binding curve was drawn with concentration of antibodies as the abscissa and the corresponding Mean Fluorescence Intensity (MFI) as the ordinate. The IC50 value of the antibodies and the AUC value of the binding curve were calculated by using a Four Parameter Logistic Fit (GraphPadPrism9). The smaller the IC50 value and AUC value, the stronger the ability of the antibodies competes with CHO-K1-CD112 cells to bind to human PVRIG-mFc protein. […] […] The smaller the percentage value, the stronger the blocking ability of the antibodies.

Row | % AUC to COM701-hIgG4 [%] | % AUC to SRF813-hIgG1 [%] | % IC50 to COM701-hIgG4 [%] | % IC50 to SRF813-hIgG1 [%] | Binder
9 | 172 | 106 | 124 | 97.9 | B3
10 | 130 | 72.7 | 134 | 118 | B4
11 | 128 | 111 | 121 | 119 | B5
12 | 152 | 111 | 118 | 116 | B6

These binders were tested against T1, cynomolgus monkey PVRIG on … (assay: FACS, FlpinCHO-cyno PVRIG cells; AUC of MFI curve relative to COM701-hIgG1).
Protocol: as §1

Row | % AUC to COM701-hIgG1 [%] | Binder
13 | 122 | B1
14 | 38.6 | B2

These binders were tested against T5, human PVRIG-his (AcroBiosystems, Cat …) (assay: ELISA, coated human PVRIG-his).
Protocol: (§2) The ELISA plate was pre-coated with 100 μL/well of 0.5 μg/mL human PVRIG-his (AcroBiosystems, Cat NO. PVG-H52H4) or cynomolgus monkey PVRIG (Novoprotein, Cat NO. C09B). […] A HRP substrate, TMB (Thermo, Cat NO. 34029) was added into wells after washing the plate again for color development. After adding a termination solution to terminate the reaction, the absorbance value was read by a microplate reader (MD i3×). An antibody binding curve was drawn with concentration of antibodies as the abscissa and the corresponding OD value as the ordinate. The EC50 value was calculated by using a Four Parameter Logistic Fit (GraphPadPrism9). The smaller the EC50 value, the stronger the ability of the antibodies binds to human or cynomolgus monkey PVRIG. The positive control antibodies are COM701-hIgG1 (Patent No.:US20180244774A1), COM701-hIgG4 (patent No.: US20180244774A1) and SRF813-hIgG1 (Patent No.:US20200040081A1); and the negative control antibodies are anti-HA HcAb-hIgG1 (Chengdu NB Biolab, Cat NO. NBR022), anti-CD38 HcAb-hIgG1 (in-house) and anti-Fluorescein-hIgG1 (in house).

Row | EC50 [nM] | Binder
15 | 0.0571 | B1
16 | 0.092 | B2

Each binder was assayed against T3, human PVRIG-his (AcroBiosystems, Cat …) (assay: competition ELISA, PVRIG-His coated, competitor human PVRL2-mFc).
Protocol: The ELISA plate was pre-coated with 100 μL/well of 0.5 μg/mL human PVRIG-his protein (AcroBiosystems, Cat NO. PVG-H52H4). The tested anti-PVRIG antibodies were diluted from the highest concentration of 16 nM (two-fold concentration). The diluted antibodies were mixed with 18 ng/ml human PVRL2-mFc (AcroBiosystems, Cat NO. CD2-H5257) in equal volume, added into the plate (100 μL/well), and incubated with shaking at room temperature for 2.0 hours. […] A HRP substrate, TMB (Thermo, Cat NO. 34029) was added into wells after washing the plate again for color development. After adding a termination solution to terminate the reaction, the absorbance value was read by a microplate reader (MD i3×). An inhibiting curve was drawn with concentration of antibodies as the abscissa and the corresponding OD value as the ordinate. The IC50 value was calculated by using a Four Parameter Logistic Fit (GraphPadPrism9). The smaller the IC50 value, the stronger the ability of the antibodies inhibits the binding between PVRIG and PVRL2. The positive and negative controls are the same as in Example 8.

Row | IC50 [nM] | Binder
17 | 0.092 | B3
18 | 0.0528 | B4
19 | 0.0537 | B5
20 | 0.0659 | B6

These binders were tested against T2, human PVRIG on FlpinCHO-PVRIG cells (assay: FACS, FlpinCHO-PVRIG cells; AUC of MFI curve relative to SRF813-hIgG1).
Protocol: as §1

Row | % AUC to SRF813-hIgG1 [%] | Binder
21 | 162 | B1
22 | 57.4 | B2

Each binder was assayed against T6, cynomolgus monkey PVRIG (Novoprotein, …) (assay: ELISA, coated cynomolgus monkey PVRIG).
Protocol: as §2

Row | EC50 [nM] | Binder
23 | 0.0192 | B1
24 | 0.0443 | B2
